We go through two molecules from PMC8850660 (2022).

The target in assay [1] is T1, unphosphorylated beta subunit of the insulin receptor (IRβ), recombinant (UniProt P06213 763-1382). The assay is described as follows: SPR; in the presence of C646 (0-100 nM).
In assay [2] the target is T1, unphosphorylated beta subunit of the …. The experiment in a line: SPR; in the presence of C646 (0-100 nM). This is another data set of the same source. (SPR reads the build-up and loss of mass on a sensor chip optically.)

T1 sequence (P06213 763-1382): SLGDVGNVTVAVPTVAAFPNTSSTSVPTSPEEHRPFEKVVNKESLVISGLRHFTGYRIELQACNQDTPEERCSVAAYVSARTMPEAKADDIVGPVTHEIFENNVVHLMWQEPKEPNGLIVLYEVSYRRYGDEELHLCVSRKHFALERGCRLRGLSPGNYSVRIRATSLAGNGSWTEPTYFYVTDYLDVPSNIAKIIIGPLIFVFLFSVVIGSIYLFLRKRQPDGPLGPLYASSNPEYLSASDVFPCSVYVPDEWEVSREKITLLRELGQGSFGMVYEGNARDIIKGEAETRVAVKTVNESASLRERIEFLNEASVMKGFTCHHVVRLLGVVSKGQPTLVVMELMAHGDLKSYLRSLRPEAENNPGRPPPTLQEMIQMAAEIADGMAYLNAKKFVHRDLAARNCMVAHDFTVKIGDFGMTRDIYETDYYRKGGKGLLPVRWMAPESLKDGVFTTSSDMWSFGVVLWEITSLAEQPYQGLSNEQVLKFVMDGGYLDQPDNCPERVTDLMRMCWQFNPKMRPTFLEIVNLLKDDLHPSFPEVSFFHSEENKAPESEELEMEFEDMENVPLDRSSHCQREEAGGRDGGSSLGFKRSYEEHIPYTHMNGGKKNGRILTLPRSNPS

B1: purified IRS2 protein (insulin receptor substrate 2) (natural protein)
chain: MASAPLPGPPASAGGDGPNLNNNNNNNNHSVRKCGYLRKQKHGHKRFFVLRGPGTGGDEASAAGGSPPQPPRLEYYESEKKWRSKAGAPKRVIALDCCLNINKRADAKHKYLIALYTKDEYFAVAAENEQEQEGWYRALTDLVSEGRSGEGGSGTTGGSCSASLPGVLGGSAGAAGCDDNYGLVTPATAVYREVWQVNLKPKGLGQSKNLTGVYRLCLSARTIGFVKLNCEQPSVTLQLMNIRRCGHSDSFFFIEVGRSAVTGPGELWMQADDSVVAQNIHETILEAMKALKELFEFRPRSKSQSSGSSATHPISVPGARRHHHLVNLPPSQTGLVRRSRTDSLAATPPAAKCTSCRVRTASEGDGGAAGGAGTAGGRPMSVAGSPLSPGPVRAPLSRSHTLSAGCGGRPSKVTLAPAGGALQHSRSMSMPVAHSPPAATSPGSLSSSSGHGSGSYPLPPGSHPHLPHPLHHPQGQRPSSGSASASGSPSDPGFMSLDEYGSSPGDLRAFSSHRSNTPESIAETPPARDGSGGELYGYMSMDRPLSHCGRPYRRVSGDGAQDLDRGLRKRTYSLTTPARQRQVPQPSSASLDEYTLMRATFSGSSGRLCPSFPASSPKVAYNPYPEDYGDIEIGSHKSSSSNLGADDGYMPMTPGAALRSGGPNSCKSDDYMPMSPTSVSAPKQILQPRLAAALPPSGAAVPAPPSGVGRTFPVNGGGYKASSPAESSPEDSGYMRMWCGSKLSMENPDPKLLPNGDYLNMSPSEAGTAGTPPDFSAALRGGSEGLKGIPGHCYSSLPRSYKAPCSCSGDNDQYVLMSSPVGRILEEERLEPQATPGAGTFGAAGGSHTQPHHSAVPSSMRPSAIGGRPEGFLGQRCRAVRPTRLSLEGLQTLPSMQEYPLPTEPKSPGEYINIDFGEAGTRLSPPAPPLLASAASSSSLLSASSPASSLGSGTPGTSSDSRQRSPLSDYMNLDFSSPKSPKPSTRSGDTVGSMDGLLSPEASSPYPPLPPRPSTSPSSLQQPLPPAPGDLYRLPPASAATSQGPTAGSSMSSEPGDNGDYTEMAFGVAATPPQPIVAPPKPEGARVASPTSGLKRLSLMDQVSGVEAFLQVSQPPDPHRGAKVIRADPQGGRRRHSSETFSSTTTVTPVSPSFAHNSKRHNSASVENVSLRKSSEGSSTLGGGDEPPTSPGQAQPLVAVPPVPQARPWNPGQPGALIGCPGGSSSPMRRETSVGFQNGLNYIAIDVRGEQGSLAQSQPQPGDKNSWSRTRSLGGLLGTVGGSGASGVCGGPGTGALPSASTYASIDFLSHHLKEATVVKE
In general, Kd refers to the equilibrium constant for the complex coming apart. By koff is commonly meant a measure of how fast the partners let go of each other. On to B1, for which, in assay [1], the Kd amounted to 7.6 pM. For the same molecule, the koff in assay [2] was 1.5e-06 s⁻¹.

B2: purified IRS1 protein (insulin receptor substrate 1) (natural protein)
chain: MASPPDTDGFSDVRKVGYLRKPKSMHKRFFVLRAASEAGGPARLEYYENEKKWRHKSSAPKRSIPLESCFNINKRADSKNKHLVALYTRDEHFAIAADSEAEQDSWYQALLQLHNRAKAHHDGAGGGCGGSCSGSSGVGEAGEDLSYDTGPGPAFKEVWQVILKPKGLGQTKNLIGIYRLCLTSKTISFVKLNSEAAAVVLQLMNIRRCGHSENFFFIEVGRSAVTGPGEFWMQVDDSVVAQNMHETILEAMRAMSDEFRPRSKSQSSSSCSNPISVPLRRHHLNNPPPSQVGLTRRSRTESITATSPASMVGGKPGSFRVRASSDGEGTMSRPASVDGSPVSPSTNRTHAHRHRGSSRLHPPLNHSRSIPMPSSRCSPSATSPVSLSSSSTSGHGSTSDCLFPRRSSASVSGSPSDGGFISSDEYGSSPCDFRSSFRSVTPDSLGHTPPARGEEELSNYICMGGKGASTLAAPNGHYILSRGGNGHRYIPGANLGTSPALPGDEAAGAADLDNRFRKRTHSAGTSPTISHQKTPSQSSVASIEEYTEMMPAAYPPGGGSGGRLPGYRHSAFVPTHSYPEEGLEMHHLERRGGHHRPDTSNLHTDDGYMPMSPGVAPVPSNRKGNGDYMPMSPKSVSAPQQIINPIRRHPQRVDPNGYMMMSPSGSCSPDIGGGSSSSSSISAAPSGSSYGKPWTNGVGGHHTHALPHAKPPVESGGGKLLPCTGDYMNMSPVGDSNTSSPSECYYGPEDPQHKPVLSYYSLPRSFKHTQRPGEPEEGARHQHLRLSSSSGRLRYTATAEDSSSSTSSDSLGGGYCGARPESSLTHPHHHVLQPHLPRKVDTAAQTNSRLARPTRLSLGDPKASTLPRVREQQQQQQSSLHPPEPKSPGEYVNIEFGSGQPGYLAGPATSRSSPSVRCPPQLHPAPREETGSEEYMNMDLGPGRRATWQESGGVELGRIGPAPPGSATVCRPTRSVPNSRGDYMTMQIGCPRQSYVDTSPVAPVSYADMRTGIAAEKASLPRPTGAAPPPSSTASSSASVTPQGATAEQATHSSLLGGPQGPGGMSAFTRVNLSPNHNQSAKVIRADTQGCRRRHSSETFSAPTRAGNTVPFGAGAAVGGSGGGGGGGSEDVKRHSSASFENVWLRPGDLGGVSKESAPVCGAAGGLEKSLNYIDLDLAKEHSQDCPSQQQSLPPPPPHQPLGSNEGNSPRRSSEDLSNYASISFQKQPEDRQ
In the case of B2, in assay [1], the Kd came out at 0.286 pM. The koff in assay [2] is 3.92e-08 s⁻¹.
